Measured values reported in publication PMC6584647, “Integrated NMR and cryo-EM atomic-resolution structure determination of a half-megadalton enzyme complex” (Nature Communications, 2019).

Target: the molecule itself
Assay: cryo-EM structure; single-particle cryo-EM map at 4.1 Å with tetrahedral symmetry imposed, refined jointly with MAS NMR and solution-NMR restraints (XPLOR-NIH, full dodecamer)

B1: aminopeptidase TET2 from Pyrococcus horikoshii (enzyme)
chain: MEVRNMVDYELLKKVVEAPGVSGYEFLGIRDVVIEEIKDYVDEVKVDKLGNVIAHKKGEGPKVMIAAHMDQIGLMVTHIEKNGFLRVAPIGGVDPKTLIAQRFKVWIDKGKFIYGVGASVPPHIQKPEDRKKAPDWDQIFIDIGAESKEEAEDMGVKIGTVITWDGRLERLGKHRFVSIAFDDRIAVYTILEVAKQLKDAKADVYFVATVQEEVGLRGARTSAFGIEPDYGFAIDVTIAADIPGTPEHKQVTHLGKGTAIKIMDRSVICHPTIVRWLEELAKKHEIPYQLEILLGGGTDAGAIHLTKAGVPTGALSVPARYIHSNTEVVDERDVDATVELMTKALENIHELKI
notes: TET2 aminopeptidase, Pyrococcus horikoshii, UniProt O59196; 353 residues (39 kDa) per subunit as printed; Dodecamer of 12 x 39 kDa (468 kDa), with two zinc ions in each active site; Samples carried various isotope labels (2H, 13C, 15N, methyl labelling); the cryo-EM sample was u-[2H,13C,15N]-labelled; No tag is mentioned; source: E. coli BL21(DE3), purified (heating to 85 °C, Resource Q, size …)
stoichiometry N: 12
